Assay results: the supplement of paper PMC10567573

B1: VAMP4 (parent)
chain: IMALVAAILLLVIIILIVMKYRT
B2: SFRS1 (parent)
chain: YSPRRSRGSPRYSPRHSRSRSRT

Variants of: B1
Assay: protein stability index of a GFP-peptide fusion (GPS, HEK-293T) (PSI 1-6); higher = more stable
Conditions: c terminus: native
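Further: lentivirally expressed fusions sorted by FACS into six bins by GFP to DsRed ratio, PSI derived from sequencing read proportions per bin multiplied by bin number.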

Protein stability index, by site and new letter:
Y21: W 3.48, S 3.37, D 2.84, H 2.58, F 3.56, M 3.42, K 1.98, I 3.26, C 3.21, T 3.13, Q 2.99, V 2.96, L 3.28, P 2.98, G 3.22, E 2.71, R 1.81, N 3.32, A 3.11
L16: A 3.57, P 3.2, V 3.35, G 3.18, Q 3.13, M 2.39, I 3.44, R 2.33, D 2.44, C 3.65, S 3.5, H 3.18, F 3.6, Y 3.25, E 3.2, N 2.73, W 3.28, K 2.73, T 3.47
M19: N 3.33, T 2.72, E 3.07, L 3.68, Y 3.09, H 3.08, G 2.99, S 3.33, Q 2.51, P 2.66, F 3.48, I 3.64, C 2.78, R 2.91, A 2.88, V 3.41, W 3.11, D 3.19, K 2.77
T23: L 3.06, W 3.69, S 3.11, R 2.99, I 2.95, Q 3.1, V 3.3, K 2.31, N 3.18, G 3.81, P 3.28, F 3.3, A 3.69, Y 3.37, E 2.74, C 3.53, M 3.39, D 3.27, H 3.48
V18: W 3.21, A 2.6, P 2.72, R 1.27, C 2.93, M 3.39, L 3.26, N 2.33, D 2.85, H 2.38, S 2.56, E 2.91, Y 2.97, F 3.09, Q 2.04, K 1.68, G 2.66, I 3.54, T 2.87
L11: Q 2.6, Y 2.68, M 3.33, W 2.84, I 3.33, P 3.43, V 3.46, S 3.39, N 2.25, K 2.61, R 2.98, T 3.56
V12: D 1.65, C 2.97, I 3.64, R 2.49, S 3.17, M 3.03, T 3.16, P 2.62, K 2.06, E 1.6, H 2.3, G 3.32, A 3.62, Y 2.47, L 3.23, N 2.48, W 2.65, F 3.47, Q 2.54
I13: Q 2.86, F 3.46, S 3.36, P 2.66, L 3.81, H 2.94, G 3.21, N 3.58, R 3.08, M 3.97, Y 3.22, T 3.82, V 2.8, W 3.63, K 1.98, E 1.77, C 3.25, A 3.86, D 1.4
I15: K 2.04, T 3.08, P 3.92, M 2.88, A 3.05, Q 1.89, H 1.69, F 2.79, L 3.26, D 2, W 1.84, C 3.51, N 1.95, R 1.9, S 2.65, V 3.25, Y 2.26, E 2.43, G 2.98
K20: E 3.49, H 3.54, V 4.06, M 3.62, S 4.02, N 3.25, T 3.59, W 4.14, R 3.15, Y 3.38, G 3.37, F 3.67, A 3.68, C 3.3, I 3.75, L 2.93, P 2.62, D 3.1, Q 2.82
R22: N 3.2, I 3.65, T 3.93, K 3.58, E 3.24, M 4.08, W 4.25, A 3.96, D 4.01, F 3.85, C 4.02, L 3.4, H 3.86, S 3.82, G 3.6, Y 3.56, P 3.06, Q 3.39, V 3.7
I17: M 3.45, Y 2.21, E 2.57, T 3.26, N 2.79, W 2.44, H 1.85, P 2.77, Q 2.31, D 1.74, G 2.83, V 3.11, R 2.33, K 2.9, C 3.11, L 2.96, F 2.58, S 3.07, A 3.54
I14: G 3.44, T 3.25, C 3.36, Y 3.26, H 1.92, M 3.09, N 2.17, A 3.33, W 2.71, S 3.02, L 3.19, K 1.92, Q 2.23, P 3.1, V 3.25, R 2.56, E 2.02, F 3.48, D 1.5

Variants of: B2
Assay: as above
Conditions: c terminus: native

Protein stability index: each site, then its substitutions
R4: T 2.83, L 2.76, A 2.82, F 2.57, W 2.38, H 3.29, C 2.28, Y 2.56, M 2.76, Q 3.53, E 3.12, P 3.36, V 3.24, K 3.71, I 2.65, S 3.56, G 3.82, N 3.13, D 2.74
P3: D 4.51, K 3.56, F 3.91, Q 3.72, T 4.22, G 4.3, M 3.58, W 3.11, S 4.21, R 4.27, I 2.8, L 3.8, Y 4.24, H 4.16, A 3.81, N 4.15, E 4.18, C 3.4, V 4.06
Y1: P 4.55, I 4.17, F 2.96, C 3.99, S 4.36, E 3.92, T 4.43, G 4.65, D 3.9, L 3.74, N 5.03, A 4.29, H 4.86, M 3.9, K 4.1, Q 4.55, W 4.08, R 5.25, V 4.65
R5: F 2.52, E 3.54, T 2.8, D 3.53, L 2.58, G 3, K 3.14, H 4.37, C 2.92, Q 3.5, M 3.58, I 2.33, V 2.87, W 1.84, S 3.76, N 3.24, P 2.75, A 3.98
S2: N 3.54, W 4.07, I 3.27, P 3.71, R 4.84, G 4.27, C 1.94, Y 3.62, F 3.52, M 3.77, D 4.09, K 3.9, T 3.19, E 4.12, Q 3.98, V 1.85, A 2, H 2.75, L 4.2
